Data as given in US20200115416A1 (REGENTS OF THE UNIVERSITY OF MINNESOTA, published 2020).
Square brackets hold non-standard residues; d marks the D form. hPhe = N[C@@H](CCc1ccccc1)C(=O)O; Nle = CCCC[C@H](N)C(=O)O; Dap = NC[C@H](N)C(=O)O

B1: c[Pro-Arg-Phe-Phe-Asn-Ser-Phe-DPro] (peptide)
peptide: cyclo(PRFFNSF[dP])
SMILES: N=C(N)NCCC[C@@H]1NC(=O)[C@@H]2CCCN2C(=O)[C@H]2CCCN2C(=O)[C@H](Cc2ccccc2)NC(=O)[C@H](CO)NC(=O)[C@H](CC(N)=O)NC(=O)[C@H](Cc2ccccc2)NC(=O)[C@H](Cc2ccccc2)NC1=O
B2: c[Pro-Arg-Phe-hPhe-Arg-Ala-Phe-DPro] (peptide)
peptide: cyclo(PRF[hPhe]RAF[dP])
SMILES: C[C@@H]1NC(=O)[C@H](CCCNC(=N)N)NC(=O)[C@H](CCc2ccccc2)NC(=O)[C@H](Cc2ccccc2)NC(=O)[C@H](CCCNC(=N)N)NC(=O)[C@@H]2CCCN2C(=O)[C@H]2CCCN2C(=O)[C@H](Cc2ccccc2)NC1=O
B3: c[Pro-Arg-Phe-hPhe-Dap-Ala-Nle-DPro] (peptide)
peptide: cyclo(PRF[hPhe][Dap]A[Nle][dP])
SMILES: CCCC[C@@H]1NC(=O)[C@H](C)NC(=O)[C@H](CN)NC(=O)[C@H](CCc2ccccc2)NC(=O)[C@H](Cc2ccccc2)NC(=O)[C@H](CCCNC(=N)N)NC(=O)[C@@H]2CCCN2C(=O)[C@H]2CCCN2C1=O
B4: c[Pro-Arg-Phe-hPhe-Asn-Ser-Nle-DPro] (peptide)
peptide: cyclo(PRF[hPhe]NS[Nle][dP])
SMILES: CCCC[C@@H]1NC(=O)[C@H](CO)NC(=O)[C@H](CC(N)=O)NC(=O)[C@H](CCc2ccccc2)NC(=O)[C@H](Cc2ccccc2)NC(=O)[C@H](CCCNC(=N)N)NC(=O)[C@@H]2CCCN2C(=O)[C@H]2CCCN2C1=O
B5: c[Pro-Arg-Phe-hPhe-Asn-Ser-Phe-DPro] (peptide)
peptide: cyclo(PRF[hPhe]NSF[dP])
SMILES: N=C(N)NCCC[C@@H]1NC(=O)[C@@H]2CCCN2C(=O)[C@H]2CCCN2C(=O)[C@H](Cc2ccccc2)NC(=O)[C@H](CO)NC(=O)[C@H](CC(N)=O)NC(=O)[C@H](CCc2ccccc2)NC(=O)[C@H](Cc2ccccc2)NC1=O
B6: c[Pro-Arg-Phe-hPhe-Arg-Ala-Nle-DPro] (peptide)
peptide: cyclo(PRF[hPhe]RA[Nle][dP])
SMILES: CCCC[C@@H]1NC(=O)[C@H](C)NC(=O)[C@H](CCCNC(=N)N)NC(=O)[C@H](CCc2ccccc2)NC(=O)[C@H](Cc2ccccc2)NC(=O)[C@H](CCCNC(=N)N)NC(=O)[C@@H]2CCCN2C(=O)[C@H]2CCCN2C1=O
B7: c[Pro-Arg-Phe-hPhe-Arg-Ser-Phe-DPro] (peptide)
peptide: cyclo(PRF[hPhe]RSF[dP])
SMILES: N=C(N)NCCC[C@@H]1NC(=O)[C@H](CCc2ccccc2)NC(=O)[C@H](Cc2ccccc2)NC(=O)[C@H](CCCNC(=N)N)NC(=O)[C@@H]2CCCN2C(=O)[C@H]2CCCN2C(=O)[C@H](Cc2ccccc2)NC(=O)[C@H](CO)NC1=O
B8: c[Pro-Arg-Phe-hPhe-Dap-Ser-Phe-DPro] (peptide)
peptide: cyclo(PRF[hPhe][Dap]SF[dP])
SMILES: N=C(N)NCCC[C@@H]1NC(=O)[C@@H]2CCCN2C(=O)[C@H]2CCCN2C(=O)[C@H](Cc2ccccc2)NC(=O)[C@H](CO)NC(=O)[C@H](CN)NC(=O)[C@H](CCc2ccccc2)NC(=O)[C@H](Cc2ccccc2)NC1=O
B9: c[Pro-Arg-Phe-hPhe-Dap-Ser-Nle-DPro] (peptide)
peptide: cyclo(PRF[hPhe][Dap]S[Nle][dP])
SMILES: CCCC[C@@H]1NC(=O)[C@H](CO)NC(=O)[C@H](CN)NC(=O)[C@H](CCc2ccccc2)NC(=O)[C@H](Cc2ccccc2)NC(=O)[C@H](CCCNC(=N)N)NC(=O)[C@@H]2CCCN2C(=O)[C@H]2CCCN2C1=O
B10: c[Pro-Arg-Phe-hPhe-Arg-Ser-Nle-DPro] (peptide)
peptide: cyclo(PRF[hPhe]RS[Nle][dP])
SMILES: CCCC[C@@H]1NC(=O)[C@H](CO)NC(=O)[C@H](CCCNC(=N)N)NC(=O)[C@H](CCc2ccccc2)NC(=O)[C@H](Cc2ccccc2)NC(=O)[C@H](CCCNC(=N)N)NC(=O)[C@@H]2CCCN2C(=O)[C@H]2CCCN2C1=O
B11: c[Pro-Arg-Phe-Phe-Asn-Ala-Nle-DPro] (peptide)
peptide: cyclo(PRFFNA[Nle][dP])
B12: c[Pro-Arg-Phe-Phe-Abu-Ala-Phe-DPro] (peptide)
peptide: PRFFXAFP
modifications: head-to-tail cyclic; Abu at 5; DPro at 8
B13: c[Pro-Arg-Phe-Phe-Asn-Ala-Trp-DPro] (peptide)
peptide: cyclo(PRFFNAW[dP])
B14: c[Pro-Arg-Phe-Phe-Asn-Ala-Tyr-DPro] (peptide)
peptide: cyclo(PRFFNAY[dP])
B15: c[Pro-Arg-Phe-Phe-Asn-Ala-hPhe-DPro] (peptide)
peptide: cyclo(PRFFNA[hPhe][dP])
B16: c[Pro-Arg-Phe-Phe-Asn-Ala-Cha-DPro] (peptide)
peptide: PRFFNAXP
modifications: head-to-tail cyclic; Cha at 7; DPro at 8
B17: c[Pro-Arg-Phe-Phe-Asn-Ala-Leu-DPro] (peptide)
peptide: cyclo(PRFFNAL[dP])
B18: c[Pro-Arg-Phe-Phe-Asn-Ala-Lys-DPro] (peptide)
peptide: cyclo(PRFFNAK[dP])
B19: c[Pro-DArg-Phe-DPhe-Asn-Ala-Phe-DPro] (peptide)
peptide: cyclo(P[dR]F[dF]NAF[dP])

The binders below were run against T1, mouse melanocortin-5 receptor (mouse, UniProt P41149 1-325) (assay: cell-based or functional assay).
T1 sequence (P41149 whole entry): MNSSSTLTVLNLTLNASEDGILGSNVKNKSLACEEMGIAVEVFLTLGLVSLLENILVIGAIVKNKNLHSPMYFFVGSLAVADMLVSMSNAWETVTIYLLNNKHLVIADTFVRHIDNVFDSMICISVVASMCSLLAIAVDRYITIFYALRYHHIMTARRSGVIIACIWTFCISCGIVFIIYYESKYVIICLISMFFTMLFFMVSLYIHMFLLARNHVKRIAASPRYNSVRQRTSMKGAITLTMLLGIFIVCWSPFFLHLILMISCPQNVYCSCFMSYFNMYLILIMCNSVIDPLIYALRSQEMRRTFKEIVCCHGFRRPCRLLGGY

| inverse agonist efficacy, % relative to basal [%] | EC50 (cAMP AlphaScreen, inverse agonist) [µM] | Binder |
| --- | --- | --- |
| -14 |  | B1 |
|  | > 100 | B2 |
|  | > 100 | B3 |
|  | > 100 | B4 |
|  | > 100 | B5 |
|  | > 100 | B6 |
|  | > 100 | B7 |
|  | > 100 | B8 |
|  | > 100 | B9 |
|  | > 100 | B10 |

The binders below were run against T2, mouse melanocortin-1 receptor (mouse, UniProt Q01727 1-315) (assay: cell-based or functional assay).
T2 sequence (Q01727 whole entry): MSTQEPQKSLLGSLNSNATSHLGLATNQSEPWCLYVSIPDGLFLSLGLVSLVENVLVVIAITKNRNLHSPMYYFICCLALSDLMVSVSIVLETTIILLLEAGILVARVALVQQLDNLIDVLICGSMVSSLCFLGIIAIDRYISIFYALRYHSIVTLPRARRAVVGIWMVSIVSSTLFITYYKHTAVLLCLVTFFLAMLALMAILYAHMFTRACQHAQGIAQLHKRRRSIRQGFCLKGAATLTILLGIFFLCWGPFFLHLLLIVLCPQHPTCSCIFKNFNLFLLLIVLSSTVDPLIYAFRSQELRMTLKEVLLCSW

| agonist EC50 (cAMP AlphaScreen) [µM] | % receptor stimulation at 100 µM (cAMP AlphaScreen) [%] | partial agonist, % receptor stimulation [%] | Binder |
| --- | --- | --- | --- |
| 1.2 |  |  | B1 |
|  | 25 |  | B2 |
| > 100 |  |  | B3 |
| > 100 |  |  | B4 |
|  | 40 |  | B5 |
| > 100 |  |  | B6 |
|  |  | 50 | B11 |
|  | 30 |  | B7 |
|  | 40 |  | B8 |
| > 100 |  |  | B9 |
| 0.4 |  |  | B10 |

These binders were tested against human melanocortin-4 receptor (human, UniProt P32245 1-332) (assay: cell-based or functional assay).
Chain of human melanocortin-4 receptor (P32245 whole entry): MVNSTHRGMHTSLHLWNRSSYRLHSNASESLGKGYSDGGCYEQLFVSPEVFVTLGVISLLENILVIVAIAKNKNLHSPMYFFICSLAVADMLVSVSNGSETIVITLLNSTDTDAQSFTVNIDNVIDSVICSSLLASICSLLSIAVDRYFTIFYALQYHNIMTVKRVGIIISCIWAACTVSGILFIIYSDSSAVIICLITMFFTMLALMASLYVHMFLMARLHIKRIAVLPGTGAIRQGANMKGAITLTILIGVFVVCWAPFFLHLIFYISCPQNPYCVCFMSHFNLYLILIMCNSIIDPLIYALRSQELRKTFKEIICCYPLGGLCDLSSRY

| inverse agonist, % decrease from basal signal [%] | Binder |
| --- | --- |
| -15 | B12 |

Biological target: T1, mouse melanocortin-5 receptor
Experiment: cell-based or functional assay
Remark: another data set of the same source

| inverse agonist, % change from basal cAMP at 100 µM [%] | inverse agonist apparent potency [µM] | inverse agonist, % decrease from basal cAMP [%] | Binder |
| --- | --- | --- | --- |
| -30 |  |  | B1 |
|  | 0.16 | -20 | B12 |

The binders below were run against T3, mouse melanocortin-4 receptor (mouse, UniProt P56450 1-332) (assay: cell-based or functional assay).
T3 sequence (P56450 whole entry): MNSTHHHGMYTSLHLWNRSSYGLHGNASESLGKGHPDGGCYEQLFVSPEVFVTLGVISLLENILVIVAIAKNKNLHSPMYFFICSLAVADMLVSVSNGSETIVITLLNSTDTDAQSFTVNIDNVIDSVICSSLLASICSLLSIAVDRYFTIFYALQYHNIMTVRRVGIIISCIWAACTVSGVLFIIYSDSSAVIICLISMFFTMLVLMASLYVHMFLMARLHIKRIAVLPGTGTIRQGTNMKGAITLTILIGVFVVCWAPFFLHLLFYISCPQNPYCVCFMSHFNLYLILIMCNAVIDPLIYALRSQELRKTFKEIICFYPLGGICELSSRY

| agonist EC50 (cAMP AlphaScreen) [µM] | antagonist pA2 (Schild, agonist NDP-MSH) | Binder |
| --- | --- | --- |
| > 100 | 8.2 | B1 |

Each binder was assayed against T4, mouse melanocortin-3 receptor (mouse, UniProt P33033 1-323) (assay: cell-based or functional assay).
T4 sequence (P33033 whole entry): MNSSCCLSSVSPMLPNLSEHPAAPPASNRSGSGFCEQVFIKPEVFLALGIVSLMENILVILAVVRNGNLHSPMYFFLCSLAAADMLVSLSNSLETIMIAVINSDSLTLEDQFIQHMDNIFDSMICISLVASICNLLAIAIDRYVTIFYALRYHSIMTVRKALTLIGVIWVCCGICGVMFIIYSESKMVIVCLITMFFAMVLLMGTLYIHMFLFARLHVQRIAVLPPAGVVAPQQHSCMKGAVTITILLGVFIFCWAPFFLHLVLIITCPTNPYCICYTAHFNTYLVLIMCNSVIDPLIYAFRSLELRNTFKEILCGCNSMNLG

| agonist EC50 (cAMP AlphaScreen) [µM] | antagonist pA2 (Schild, agonist NDP-MSH) | Binder |
| --- | --- | --- |
| > 100 | 6.2 | B1 |
| > 100 | < 5.5 | B12 |

Biological target: T2, mouse melanocortin-1 receptor
Experiment: cell-based or functional assay
Remark: another data set of the same source

| agonist EC50 (cAMP AlphaScreen) [µM] | Binder |
| --- | --- |
| > 100 | B1 |
| > 100 | B12 |

Biological target: T1, mouse melanocortin-5 receptor
Experiment: cell-based or functional assay
Remark: another data set of the same source

| inverse agonist apparent potency [µM] | inverse agonist, % decrease from basal cAMP [%] | inverse agonist, % change from basal cAMP at 100 µM [%] | Binder |
| --- | --- | --- | --- |
| 0.15 | -20 |  | B13 |
|  |  | -40 | B14 |
| 0.29 | -20 |  | B15 |
| 0.78 | -20 |  | B16 |
|  |  | -35 | B17 |
|  |  | -35 | B11 |
|  |  | -40 | B18 |

Biological target: T4, mouse melanocortin-3 receptor
Experiment: cell-based or functional assay
Remark: another data set of the same source

| % maximal NDP-MSH response at 100 µM (cAMP AlphaScreen) [%] | Binder |
| --- | --- |
| 35 | B19 |

Biological target: T2, mouse melanocortin-1 receptor
Experiment: cell-based or functional assay
Remark: another data set of the same source

| agonist EC50 (cAMP AlphaScreen) [µM] | Binder |
| --- | --- |
| 1.2 | B19 |

Biological target: T3, mouse melanocortin-4 receptor
Experiment: cell-based or functional assay
Remark: another data set of the same source

| antagonist pA2 (Schild, agonist NDP-MSH) | Binder |
| --- | --- |
| 8.1 | B1 |
| 8.9 | B2 |
| 9.1 | B3 |
| 9.2 | B4 |
| 8.6 | B5 |
| 8.8 | B6 |
| 8.8 | B7 |
| 9.2 | B8 |
| 9.5 | B9 |
| 9.5 | B10 |

Biological target: T4, mouse melanocortin-3 receptor
Experiment: cell-based or functional assay
Remark: another data set of the same source

| antagonist pA2 (Schild, agonist NDP-MSH) | Binder |
| --- | --- |
| 6.1 | B1 |
| 8 | B2 |
| 6.7 | B3 |
| 6.3 | B4 |
| 6.5 | B5 |
| 7.5 | B6 |
| 7.7 | B7 |
| 7.2 | B8 |
| 6.7 | B9 |
| 7.9 | B10 |
